From US20060193849A1 come the findings set out here.

The target of this assay is MUC-1 gene product, the membrane mucin glycoprotein (polymorphic epithelial mucin or PEM) (human) (UniProt P15941). The experiment in a line: flow cytometry equilibrium binding on MCF7 cells. Conditions: scFv.
MUC-1 gene product, the membrane mucin glycoprotein (polymorphic epithelial mucin or PEM) (human), sequence (P15941 24-1255): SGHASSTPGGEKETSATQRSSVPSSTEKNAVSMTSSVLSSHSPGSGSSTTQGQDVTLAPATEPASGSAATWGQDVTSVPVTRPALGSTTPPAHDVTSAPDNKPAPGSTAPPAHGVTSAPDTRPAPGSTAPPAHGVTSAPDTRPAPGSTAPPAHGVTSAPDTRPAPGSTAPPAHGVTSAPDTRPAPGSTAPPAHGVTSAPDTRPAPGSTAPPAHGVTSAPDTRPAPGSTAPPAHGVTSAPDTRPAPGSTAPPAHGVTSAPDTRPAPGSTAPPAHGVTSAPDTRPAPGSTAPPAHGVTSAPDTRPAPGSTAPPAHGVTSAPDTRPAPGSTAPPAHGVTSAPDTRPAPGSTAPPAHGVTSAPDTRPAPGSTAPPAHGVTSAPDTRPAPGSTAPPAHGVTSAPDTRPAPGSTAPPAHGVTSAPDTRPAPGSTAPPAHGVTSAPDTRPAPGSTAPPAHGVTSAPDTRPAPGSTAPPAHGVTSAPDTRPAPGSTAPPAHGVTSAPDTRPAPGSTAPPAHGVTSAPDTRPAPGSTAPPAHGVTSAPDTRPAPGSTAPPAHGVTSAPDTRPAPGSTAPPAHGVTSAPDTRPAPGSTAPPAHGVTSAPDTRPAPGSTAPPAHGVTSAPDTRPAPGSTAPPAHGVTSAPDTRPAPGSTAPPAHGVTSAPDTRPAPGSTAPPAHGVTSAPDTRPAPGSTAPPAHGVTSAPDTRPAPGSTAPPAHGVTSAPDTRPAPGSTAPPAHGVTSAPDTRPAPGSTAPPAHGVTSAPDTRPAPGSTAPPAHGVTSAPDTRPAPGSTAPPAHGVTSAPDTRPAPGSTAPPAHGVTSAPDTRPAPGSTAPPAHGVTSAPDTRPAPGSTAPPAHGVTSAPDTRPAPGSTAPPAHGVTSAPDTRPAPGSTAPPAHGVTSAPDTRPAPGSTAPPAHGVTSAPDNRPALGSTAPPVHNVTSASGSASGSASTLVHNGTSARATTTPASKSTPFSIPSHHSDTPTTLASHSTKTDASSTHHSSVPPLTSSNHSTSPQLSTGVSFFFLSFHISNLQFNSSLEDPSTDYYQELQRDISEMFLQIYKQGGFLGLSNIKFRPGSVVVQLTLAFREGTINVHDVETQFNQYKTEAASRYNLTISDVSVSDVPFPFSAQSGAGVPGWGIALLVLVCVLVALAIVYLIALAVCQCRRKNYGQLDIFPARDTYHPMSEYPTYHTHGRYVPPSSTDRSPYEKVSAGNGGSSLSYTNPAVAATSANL

A word on the Kd: it is the free concentration of one partner at which half of the binding sites on the other are occupied at equilibrium, for simple one-to-one binding. For huHMFG1 wild-type scFv 22W, the Kd was determined as 199 nM.
